The DeepSol protein solubility set

Experiment: soluble on expression in E. coli; label from the status in PepcDB or PDB records
For “MSHHHHHHAGIFTFEEPVTHVSESIGIMEVKVLRTSGARGNVIVPYKTIEGTARGGGEDFEDTCGELEFQNDEIVKIITIRIFDREEYEKECSFSLVLEEPKWIRRGMKGGFTITEEYDDKQPLTSKEEEERRIAEMGRPILGEHTKLEVIIEESYEFKSTVD”, the “soluble on expression in E. coli” value was “soluble”.
For “SSLCERAASGSALLWPRVLLFGDSITQFSFQQGGWGSLLADRLVRKCDVLNRGFSGYNTRWAKIILPRLIRKGPGMENPVAVTIFFGANDSSLKDENPKQHVPLDEYSANLRDMVQYLRSVDVPRERVILITPPPLCEAAWEKECVLKGCKLNRLNSVVGEYANACLQVARDCGTDVLDLWTLMQKDSQDFSSYLSDGLHLSPMGNEFLFLNLCPLLDKKVSSLPWLLPYWKDVEEAKPELSLLGDGDY”, the “soluble on expression in E. coli” value was “soluble”.
For “MYRSHFIADVTPEYDGKEVIWAGWVHLLRDLGGKKFIILRDKTGLGQVVVDKNSSAFGISQELTQESVIQVRGIVKADKRAPRGIELHAEEITLLSKAKAPLPLDVSGKVKADIDTRLRERVLDLRRQEMQAVIKIQSLALKAFRETLYKEGFIEIFTPKIIASATEGGAQLFPVIYFGKEAFLAQSPQLYKELMAGVVERVFEVAPAWRAEESDTPFHLAEFISMDVEMAFADYNDVMQLLEKILHNIVKTIKEEGKEELKILNYEPPEVKIPIKRLKYTEAIEILRSKGYNIKFGDDIGTPELRILNEELKEDLYFIVDWPSDARPFYTKSKSENPELSESFDLIYKFLEIVSGSTRNHKREVLEEALKKKGLKPESFEFFLKWFDYGMPPHAGFGMGLARLMVMLTGIQSVKEIVPFPRDKKRLTP”, the “soluble on expression in E. coli” value was “soluble”.
For “MINKLKENIGSVFVGKENVIDLLLVSLLADGHVLLENVPGTGKTLLAKTISKSIGGSFSRVQFTPDVLPSDVTGIEYFNPKTSEFELRIGPVMTNILLADEINRAMPRTQSSLLEAMEERQVTLEKQSTPLPKPFFVIATQNPIESQGTFPLPDAQLDRFLMTISIGHPTPKDELQMMRRFRNDLPLESVTSVISLEDILEAQKRVKEIFVSEPLEHYIIKLAHATRNHDYIANGVSPRATLALVRAVQALAFLRGREYCTPEDIQLLVPSVWNHRIVLSMEGALRTTKNDIMQSILKEVDVPVEIEQA”, the “soluble on expression in E. coli” value was “not soluble”.
For “MKRADDFQQRRAHLANLSDEELQTRFWEMAEKIVDPLLDLGKKNTTPSIERSVLLRMGFSSLEAKAIVDKTMDRGLMGKGAGHIVYKIAKEKNISVREAGLALSEGKYWDDAIQIFKGGVK”, the “soluble on expression in E. coli” value was “soluble”.
In the case of “MCAVLRQPKCVKLRALHSACKFGVAARSCQELLRKGCVRFQLPMPGSRLCLYEDGTEVTDDCFPGLPNDAELLLLTAGETWHGYVSDITRFLSVFNEPHAGVIQAARQQLSDEQAPLRQKLLADLLHHVSQNITAETREQDPSWFEGLESRFRNKSGYLRYSCESRIRGYLREVSAYTSMVDEAAQEEYLRVLGSMCQKLKSVQYNGSYFDRGAEASSRLCTPEGWFSCQGPFDLESCLSKHSINPYGNRESRILFSTWNLDHIIEKKRTVVPTLAEAIQDGREVNWEYFYSLLFTAENLKLVHIACHKKTTHKLECDRSRIYRPQTGS”, the “soluble on expression in E. coli” value is reported as “soluble”.
With “MSLASISLPVGGRLLPYELTGRPVPLKGRDAAAFPRVAFAAAHVVADPLADNDPWVTPAIDWERTLAFRHRLWDLGLGVAESMDTAQRGMGLGWPEARELIGRSLSEARGRSGALIACGAGTDHLVPGPNVTIDEILRAYESQIETIEAEGGRIILMASRALAAAAKGPEDYFRVYDRILSQVKEPVIIHWLGEMFDPALEGYWGNADHMAAMKTCLDVIEAHAAKVDGIKISLLSKKKEIVMRRQLPKGVRMYTGDDFNYAELISGDEEGYSDALLGIFDAIAPVASAALEALGGGRNGEFFELLDPTVPLSRHIFKAPTRFYKTGVVFLAYLNGLQDHFAMIGGQQSARSLVHLAELFRLADRAGVLQDPELAAGRMRRVLAVNGVAEGHHHHHH” the “soluble on expression in E. coli” value was “soluble”.
With “MFEGFKEVTDKDFYKAVMMNPKPSVVVFTDPNNPANEQIKPILEKYQKLYGDKIDFFYMDVTKNTSFEDFGIFNFPAILYFRDTMELDRHDFIPTEEMVEQAIKRLLRMV” the “soluble on expression in E. coli” value was “not soluble”.
In the case of “SGQKVTGGIKTVDMRDPTYRPLKQELQGLDYCKPTRLDLLLDMPPVSYDVQLLHSWNNNDRSLNVFVKEDDKLIFHRHPVAQSTDAIRGKVGYTRGLHVWQITWAMRQRGTHAVVGVATADAPLHSVGYTTLVGNNHESWGWDLGRNRLYHDGKNQPSKTYPAFLEPDETFIVPDSFLVALDMDDGTLSFIVDGQYMGVAFRGLKGKKLYPVVSAVWGHCEIRMRYLNGLDPEPLPLMDLCRRSVRLALGRERLGEIHTLPLPASLKAYLLYQ”, the “soluble on expression in E. coli” value is reported as “soluble”.
For “GPGSMWALTCRPIQNTEALQLMERYKAHNALQSNQWLLPRHLACFAVRPLYPAQLVLPTSSVIRLPLSAVPFSSLPLSRKREVFGLYPPPCTPPGSCSLLECSGAAMRWRPASLSECFDAAFVRSDSPSSHQHLLCATDCAGSVTVAEEVTVFNAQETNNPFLVDADLVHRNLLTKEAYEHSIGSSLTTIAAQFRYTSFEWVEATAAAAVGLRVRSSAAPHLVNCVDMLRVVHISQLPYTRQQELVAEIPRMTLIKSMTISYIFYHTRWRHHKSMELMRPLLHSNIPCCDTPQAQALQPLLWIAVDLDMEFRGPVMECARHSRTQFYNSQQLEVDTCAVPSRS”, the “soluble on expression in E. coli” value was “soluble”.
With “MTTIEIDAPAGPIDALLGLPPGQGPWPGVVVVHDAVGYVPDNKLISERIARAGYVVLTPNMYARGGRARCITRVFRELLTKRGRALDDILAARDHLLAMPECSGRVGIVGFCMGGQFALVLSPRGFGATAPFYGTPLPRHLSETLNGACPIVASFGTRDPLGIGAANRLRKVTAAKNIPADIKSYPGAGHSFANKLPGQPLVRIAGFGYNEAATEDAWRRVFEFFGQHLRAGSPGEP” the “soluble on expression in E. coli” value was “soluble”.
With “MTEITHRTKTRPVKVGNLTIGGNNEVVVQSMTTTKTHDVEATVAEIKRLEEAGCQVVRVACPDMRAAEAIPAIKKQISIPLVVDIHFDYKLALKAIEGGADKIRINPGNIGKRHKVEAVVKAAKEKGIPIRIGVNAGSLEKRILDKYGYPTADGMVESALHHIKILEDLDFHDIIVSMKASDVNLAIEAYEKAAKAFDYPLHLGITESGTLFAGTVKSAAGLGAILNMGIGNTVRVSLSADPVEEVKVARELLKSFGLASNAATLISCPTCGRIEIDLISIANEMEEYISKIRAPIKVAVLGCAVNGPGEAREADIGIAGARGEGLLFRKGEIVRKVPEETMVEELKKEIDKIAEEYFAKQKELEKA” the “soluble on expression in E. coli” value was “not soluble”.
For “MGHHHHHHSHMADIPSFQGTTLTRDTVRQLVSDIFIYKMPFNIELGLELQQFEADKAVLTFARQDKLIGNAAQKILHGGVIAAGLDVAAGLVCVGNTLLRHETISDQEFHHRLARMGTIDMRVDYLRPGYGERFTITSTLLRGGNKIAVARAELHNEQGSHLASATATYIVG”, the “soluble on expression in E. coli” value was “soluble”.
In the case of “MSLDSLYVNDFYKGDRNITKFLKLELEMYDWKLMILHYLGLDHIGHVEGPFSDKVPGKLKEMDKVIKTIYHTMDKWKYYTKPLLVITGDHGMRDSGGHGGSSHAETIVPVVIVSDQCAKSEETFLQIDEGHHHHHH”, the “soluble on expression in E. coli” value is reported as “not soluble”.
With “MGSDKIHHHHHHMSNRDKILSYRDLIKKKLIPLINADYVLLDVPNHPNIGDNLIWEGELRFLENIHYKCIYSANVHNWDENKIKDAKIILFHGGGNWGDLYRECQEHRLYIAEKFKDKRIIIFPQTVWYNNKSILPIDCKIFNNHADIHICLRDQMSMDILSNYVDAKKLYLLPDMAFFVDVEAMPMRKVRNDCILFMLRTDSEIDDITFKLESDFDVKDWPTFSNNKYILLLYSYFEYFKVVVSKRLQKCKFLNVFVSPIYGLNRKNNRERYIYKGINFFSNYEIIYTTRLHGLILGILMDKKVIIVDNKYNKCKNYYDTWLREFDNIELMS” the “soluble on expression in E. coli” value was “not soluble”.
For “MQRQEQLKKWLAEQYPGDEIQLEFAAADADFRRYFRAIWPDGASRIVMDAPPEHIGTDAYVKVRDIFSMVKVPEIYLRDRDQGFIVMEDLGKVTYLAALQHDERPFVHRHLLLEALDTLVDIQKASQPEVLPEYDETLLTRELNLFPEWFCAKELGKPLNFKQRQLWDAGVQALLPALLTQPKVFVHRDFIVRNLMLTPGTPGVLDFQDAVYGPISYDAVSLLRDAFIEWDEEFVLDLAIRYWEKARAAGLPVPEAFDDFYRAFEWMGVQRHLKVAGIFARLYHRDGKDKYLAEIPRFIKYLKRTTRRYAELAPFYQLLVDLVGRDATDEELQSSYPVLGVKGHLEHHHHHH”, the “soluble on expression in E. coli” value was “not soluble”.
For “MRTGKAWVWQLRRAAERTRRPFAGDNSPTFTVEHTHRMYPCHVFCNPLIGTIQMKACSRSERREGSKKMEAAKASKPDVSAVYAVDLSQRPVSQGDAAREKAALLQLARRMHEAPGEMLRRFVELAMELTGGISAGISLLEETEPPPVFRWHHLKGILSPFNGATTPRDFSPCGITLDRSAPTLTIHPERVYDWIPPGLFLPEVLLVPLYIGRTEPLGTLWIVADRIEHFHCGHAATMQELAGFIGIALKMVRSEEELQQALEQQELLTREMGHRLKNLFTILDSMVRISARSTDNKDDLVALLSGRLHALAAAHSLVKPSFSDVQGAASSLAELLSIVLEPHEQPAISGKRRLSLTGPTVLCGEQSVNGLALVFHELATNAAKYGSLCGDLGTVDVVWQIDGDDLGITWREDGGAQATSSSPASKGFGSTLVEATVIRQFGGTLSYDWRSTGLSVHIVIPLCRLAQ”, the “soluble on expression in E. coli” value was “not soluble”.
With “MSDAQGNTLTEEELAMLRAGDEENDNTDTIMVIRVPNDGSSATAVSIPRDTYIHDDDYGNMKINGVYGAYKDARRAELMEQGFTNESELETRAKDAGREGLIDAVSDLTGITVDHYAEVGLLGFVLLTDAVGGVEVCLNNAVDEPLSGANFPAGRQTLGGSDALSYVRQRHDLPRGDLDRIVRQQSYMASLVNQVLSSGTLTNPAKLSALADAVTRSVVIDEGWEIMSFATQLQNLAGGNVTFATIPVTSIDGTGDYGESVVTIDVNQVHAFFQEALGEAEPAPEDGSDDQSADQAPDLSEVEVHVLNASYVEGLANGIAAQLQELGYSIAETGNAAEGLYYESQILAAEEDSAKALAISEALGGLPIVANSSLDDNTVIVVSAGDYAGPTAEANALEHHHHHH” the “soluble on expression in E. coli” value was “soluble”.
For “MTNTLVENIYASVTHNISKKEASKNEKTKAVLNQAVADLSVAASIVHQVHWYMRGPGFLYLHPKMDELLDSLNANLDEVSERLITIGGAPYSTLAEFSKHSKLDEAKGTYDKTVAQHLARLVEVYLYLSSLYQVGLDITDEEGDAGTNDLFTAAKTEAEKTIWMLQAERGQGPAL”, the “soluble on expression in E. coli” value was “soluble”.
For “QPKTFTVRIVTMDAEMEFNCEMKWKGKDLFDLVCRTLGLRETWFFGLQYTIKDTVAWLKMDKKVLDHDVSKEEPVTFHFLAKFYPENAEEELVQEITQHLFFLQVKKQILDEKVYCPPEASVLLASYAVQAKYGDYDPSVHKRGFLAQEELLPKRVINLYQMTPEMWEERITAWYAEHRGRARDEAEMEYLKIAQDLEMYGVNYFTIRNKKGTELLLGVDALGLHIYDPENRLTPKISFPWNEIRNISYSDKEFTIKPLDKKIDVFKFNSSKLRVNKLILQLCIGNHDLFMRRRKADSLEVQQMKAQAREEKARKQMERQRLA”, the “soluble on expression in E. coli” value was “soluble”.
For “MGSDKIHHHHHHMPPVWTLPRLYQHFQGAIDLELWTIPYYLTVLYSIKDPTTVPYRLIQAAVYQEMLHAQLVSNIANAYGYSPTLSAPEYVGTAVPHIDFDLDTPNPTSIFTPYSAELGPLDLTRVNTMCLIEYPEWRTQREPDLADDVTDYGSIGEFYDALRVGMEQLRGHVRGNQKQMDEFGPFYQNSPPLTVTESGDAGFLQALTLVDIIVDQGEGQTQPVETIPTEFQNTADGFQDAWPHFQRFDFIRRMPNWPGVYTGVTDPPAGSPGAEAQARLIADFAGFLDILNGMFSGGGAPPAFGVQMAKLGGDILSCWKLGAVPRYS”, the “soluble on expression in E. coli” value was “not soluble”.
